To fix the notation:
B1: LINE1-mini (parent)
chain: GGCAGAGCUCAACACAGCGUGGCAAAGUGGCUGUGGCUAGACUGCC

These results are taken from the RNAGym collection of RNA variant scans (doi:10.7554/elife.90254).

The variants in this data set derive from B1. Put plainly: self-cleavage, relative activity (ratio to wild type); higher = more cleavage; in vitro, sequencing; the parent is a self-cleaving ribozyme.
Take G5U G7A: the self-cleavage was determined as 0.43.

For the variant G5U G7C, the self-cleavage was determined as 0.11.

For the variant G5U G7U, the self-cleavage worked out at 0.13.

Regarding G5U G44C, the self-cleavage amounted to 0.06.

Consider G5U G44U, for which the self-cleavage turned out to be 0.06.

As for G5U G44A, the self-cleavage was 0.08.

Consider A6C G7A, for which the self-cleavage came out at 0.18.

For the variant G5U G33C, the self-cleavage stood at 0.06.

For G5U G33A, the self-cleavage turned out to be 0.04.

Take G5U G33U: the self-cleavage is 0.05.

As to A6C C45A, the self-cleavage came out at 0.47.

On to A6C C45U, for which the self-cleavage was 0.7.

For A6C C45G, the self-cleavage worked out at 0.09.

G5C C37A: the self-cleavage came to 0.05.

Take G5C C37U: the self-cleavage is 0.09.

In the case of G5C C37G, the self-cleavage came to 0.05.

With G5C G17C, the self-cleavage was determined as 0.03.

Regarding G5C G17A, the self-cleavage was determined as 0.04.

With G5C G17U, the self-cleavage turned out to be 0.04.

For G5C A14C, the self-cleavage was 0.07.

For the variant G5C A14U, the self-cleavage was determined as 0.06.

As to G5C A14G, the self-cleavage is 0.04.

As to G5C U38C, the self-cleavage is 0.05.

Consider G5C U38G, for which the self-cleavage stood at 0.03.

On to G5C U38A, for which the self-cleavage is 0.09.

For G5U G19A, the self-cleavage was found to be 0.33.

For G5U G19U, the self-cleavage came out at 0.1.

Turning to G5U G19C, the self-cleavage was determined as 0.05.

G5U C10U: the self-cleavage was 0.06.

Consider G5U C10G, for which the self-cleavage turned out to be 0.03.

Take G5U C10A: the self-cleavage was found to be 0.03.

On to G5U A11C, for which the self-cleavage came out at 0.03.

With G5U A11G, the self-cleavage was 0.02.

For G5U A11U, the self-cleavage was 0.04.

Consider G5C G27U, for which the self-cleavage came out at 0.09.

For G5C G27A, the self-cleavage came to 0.05.

As for G5C G27C, the self-cleavage stood at 0.06.

Regarding G5C C31U, the self-cleavage was 0.05.

As for G5C C31G, the self-cleavage amounted to 0.06.

Turning to G5C C31A, the self-cleavage stood at 0.08.

As for G5A U20C, the self-cleavage was 0.06.

With G5A U20A, the self-cleavage worked out at 0.13.

For the variant G5A U20G, the self-cleavage came to 0.13.

In the case of G5U A16G, the self-cleavage was found to be 0.06.

Consider G5U A16U, for which the self-cleavage was found to be 0.06.

G5U A16C: the self-cleavage amounted to 0.03.

G5U G22A: the self-cleavage is 0.16.

Take G5U G22U: the self-cleavage was 0.18.

For G5U G22C, the self-cleavage turned out to be 0.06.

In the case of G5C C13A, the self-cleavage was determined as 0.09.

In the case of G5C C13U, the self-cleavage was 0.05.

Turning to G5C C13G, the self-cleavage amounted to 0.13.

On to G5U G36A, for which the self-cleavage is 0.33.

Take G5U G36C: the self-cleavage was found to be 0.04.

As for G5U G36U, the self-cleavage stood at 0.57.

As to G5U C18G, the self-cleavage was 0.06.

With G5U C18U, the self-cleavage worked out at 0.1.

In the case of G5U C18A, the self-cleavage is 0.07.

In the case of G5C C18U, the self-cleavage turned out to be 0.03.

Consider G5C C18A, for which the self-cleavage is 0.05.

For the variant G5C C18G, the self-cleavage was determined as 0.04.

Turning to G5A G44U, the self-cleavage worked out at 0.07.

For the variant G5A G44A, the self-cleavage is 0.1.

In the case of G5A G44C, the self-cleavage was 0.06.

Take G5C C23A: the self-cleavage was 0.07.

For the variant G5C C23G, the self-cleavage was found to be 0.04.

For G5C C23U, the self-cleavage stood at 0.05.

On to A6C C37G, for which the self-cleavage was 0.03.

On to A6C C37A, for which the self-cleavage worked out at 0.34.

For A6C C37U, the self-cleavage stood at 0.12.

A6C C18A: the self-cleavage turned out to be 0.2.

As for A6C C18G, the self-cleavage was 0.24.

As for A6C C18U, the self-cleavage stood at 1.1.

For the variant G5C A25C, the self-cleavage amounted to 0.05.

G5C A25U: the self-cleavage was found to be 0.09.

Regarding G5C A25G, the self-cleavage worked out at 0.06.

Turning to G5C A39U, the self-cleavage stood at 0.06.

Turning to G5C A39G, the self-cleavage is 0.07.

Consider G5C A39C, for which the self-cleavage was 0.07.

In the case of G5A U34C, the self-cleavage came to 0.08.

Take G5A U34A: the self-cleavage was 0.07.

In the case of G5A U34G, the self-cleavage stood at 0.04.

As to G5C U32A, the self-cleavage came out at 0.06.

Regarding G5C U32G, the self-cleavage was found to be 0.07.

As to G5C U32C, the self-cleavage was 0.1.

With G5C A24U, the self-cleavage stood at 0.07.

G5C A24G: the self-cleavage amounted to 0.06.

Turning to G5C A24C, the self-cleavage turned out to be 0.04.

Regarding A6C A24G, the self-cleavage worked out at 0.49.

For the variant A6C A24U, the self-cleavage came out at 1.07.

Consider A6C A24C, for which the self-cleavage came to 0.41.

For G5C G40U, the self-cleavage is 0.1.

As to G5C G40C, the self-cleavage is 0.1.

Regarding G5C G40A, the self-cleavage amounted to 0.1.

With G5U U9C, the self-cleavage was determined as 0.05.

Consider G5U U9G, for which the self-cleavage turned out to be 0.11.

In the case of G5U U9A, the self-cleavage was 0.36.

Turning to G5A U9G, the self-cleavage came to 0.27.

With G5A U9A, the self-cleavage stood at 0.35.

Turning to G5A U9C, the self-cleavage was determined as 0.04.

Regarding A6C A14G, the self-cleavage was 0.16.

On to A6C A14U, for which the self-cleavage came out at 0.22.

As to A6C A14C, the self-cleavage amounted to 0.13.

For G5U A26C, the self-cleavage came to 0.11.

G5U A26U: the self-cleavage was determined as 0.09.

Turning to G5U A26G, the self-cleavage came out at 0.12.

In the case of G5U U43A, the self-cleavage stood at 0.08.

In the case of G5U U43G, the self-cleavage came out at 0.1.

With G5U U43C, the self-cleavage was 0.06.

Turning to G5U A24G, the self-cleavage is 0.19.

Regarding G5U A24C, the self-cleavage is 0.08.

With G5U A24U, the self-cleavage is 0.08.

As to G5C U20A, the self-cleavage came out at 0.04.

Regarding G5C U20G, the self-cleavage worked out at 0.06.

In the case of G5C U20C, the self-cleavage turned out to be 0.18.

G5A U38A: the self-cleavage turned out to be 0.16.

Turning to G5A U38C, the self-cleavage is 0.09.

On to G5A U38G, for which the self-cleavage was 0.02.

In the case of A6C A16U, the self-cleavage stood at 0.09.

Turning to A6C A16C, the self-cleavage was found to be 0.1.

Regarding A6C A16G, the self-cleavage amounted to 0.22.

As to G5U G21A, the self-cleavage stood at 0.28.

Consider G5U G21U, for which the self-cleavage was determined as 0.1.

Regarding G5U G21C, the self-cleavage came out at 0.09.

As for G5U C46G, the self-cleavage came out at 0.13.

G5U C46A: the self-cleavage was 0.11.

As to G5U C46U, the self-cleavage came to 0.07.

As to G5A U43G, the self-cleavage amounted to 0.86.

For the variant G5A U43A, the self-cleavage turned out to be 0.05.

Regarding G5A U43C, the self-cleavage was 0.07.

For the variant A6C, the self-cleavage turned out to be 0.71.

Take G5C A12C: the self-cleavage stood at 0.04.

As to G5C A12U, the self-cleavage was determined as 0.05.

G5C A12G: the self-cleavage came to 0.05.

As for G5U C42A, the self-cleavage was found to be 0.38.

For G5U C42U, the self-cleavage came to 0.08.

G5U C42G: the self-cleavage came to 0.04.

Turning to A6C A39C, the self-cleavage is 0.23.

For the variant A6C A39U, the self-cleavage came out at 0.68.

A6C A39G: the self-cleavage was 0.1.

G5C C10G: the self-cleavage came to 0.02.

For the variant G5C C10U, the self-cleavage stood at 0.04.

Consider G5C C10A, for which the self-cleavage worked out at 0.05.

Regarding G5U A39U, the self-cleavage came out at 0.11.

For G5U A39C, the self-cleavage amounted to 0.06.

Regarding G5U A39G, the self-cleavage came to 0.04.

Turning to G5U U32G, the self-cleavage was 0.09.

As to G5U U32A, the self-cleavage came to 0.07.

Turning to G5U U32C, the self-cleavage came out at 0.07.

On to G5C C45U, for which the self-cleavage was 0.06.

As for G5C C45A, the self-cleavage came to 0.05.

As for G5C C45G, the self-cleavage was determined as 0.05.

For the variant G5C U43C, the self-cleavage was 0.04.

For G5C U43G, the self-cleavage is 0.13.

Turning to G5C U43A, the self-cleavage was 0.05.

Take A6C A41U: the self-cleavage was 0.1.

A6C A41C: the self-cleavage is 0.04.

Turning to A6C A41G, the self-cleavage stood at 1.17.

With G5C G21A, the self-cleavage came out at 0.1.

With G5C G21C, the self-cleavage turned out to be 0.04.

G5C G21U: the self-cleavage stood at 0.09.

Consider G5C A6U, for which the self-cleavage was 0.06.

Consider G5C A6G, for which the self-cleavage was 0.09.

For the variant G5C A6C, the self-cleavage was 0.23.

On to G5U G35A, for which the self-cleavage stood at 0.08.

Consider G5U G35U, for which the self-cleavage turned out to be 0.15.

Take G5U G35C: the self-cleavage turned out to be 0.06.
